From patent publication EP1869192B1 (MedImmune, LLC, dated 2016) come the findings set out here.

Changes are numbered by the printed parent chain.

Assay [1] has as its target Human EphA2-Fc fusion protein (human EphA2 fused with the Fc portion of a human IgG1) (human) (UniProt P29317). The assay is described as follows: single point ELISA: 1 ug goat anti-human Fd capture, biotinylated human EphA2-Fc 300-600 ng/well, neutravidin-HRP.
Assay [2] shares this target. Kind of assay: SPR (BIAcore), human IgG1 format on immobilized EphA2-Fc.
Assay [3] shares this target. Kind of assay: second single point ELISA: periplasmic extract of 15 ml culture, 1 ug/well goat anti-human Fd capture, biotinylated EphA2-Fc.
The target is the same in assay [4]. The assay is described as follows: single point ELISA: periplasmic Fab captured on 1 ug goat anti-human Fd, biotinylated human EphA2-Fc 300-600 ng/well, neutravidin-HRP.
The target is the same in assay [5]. The assay is described as follows: single point ELISA: periplasmic extract of 45 ml culture, 1 ug/well goat anti-human Fd capture, biotinylated EphA2-Fc.
Assay [6] shares this target. The assay is described as follows: SPR (BIAcore 3000), EphA2-Fc amine-coupled to CM5 chip (about 500 RU), IgG in solution, 25 C, 1:1 Langmuir fit.
The target is the same in assay [7]. The assay is described as follows: SPR (BIAcore 3000), EphA2-Fc amine-coupled to CM5 chip (about 500 RU), IgG in solution, 25 C, KD = koff/kon.
Assay [8] has the same target. The assay is described as follows: single point ELISA: periplasmic Fab captured on 500 ng goat anti-human Fab, biotinylated human EphA2-Fc 300 ng/well, neutravidin-HRP.
Assay [9] shares this target. Kind of assay: SPR (BIAcore 3000), EphA2-Fc amine-coupled to CM5 chip, IgG in solution, 25 C, 1:1 Langmuir fit.
For assay [10] the target is unchanged. Kind of assay: SPR (BIAcore 3000), EphA2-Fc amine-coupled to CM5 chip, IgG in solution, 25 C, KD = koff/kon.
In assay [11] the target is T1, Human EphA2-Fc fusion protein (human EphA2 fused with the Fc portion of a human IgG1) (human, UniProt P29317 24-534, limits assumed).
T1 construct: also called biotinylated human EphA2-Fc; not shown: Fc portion of a human IgG1
T1 sequence (P29317 24-534 limits assumed): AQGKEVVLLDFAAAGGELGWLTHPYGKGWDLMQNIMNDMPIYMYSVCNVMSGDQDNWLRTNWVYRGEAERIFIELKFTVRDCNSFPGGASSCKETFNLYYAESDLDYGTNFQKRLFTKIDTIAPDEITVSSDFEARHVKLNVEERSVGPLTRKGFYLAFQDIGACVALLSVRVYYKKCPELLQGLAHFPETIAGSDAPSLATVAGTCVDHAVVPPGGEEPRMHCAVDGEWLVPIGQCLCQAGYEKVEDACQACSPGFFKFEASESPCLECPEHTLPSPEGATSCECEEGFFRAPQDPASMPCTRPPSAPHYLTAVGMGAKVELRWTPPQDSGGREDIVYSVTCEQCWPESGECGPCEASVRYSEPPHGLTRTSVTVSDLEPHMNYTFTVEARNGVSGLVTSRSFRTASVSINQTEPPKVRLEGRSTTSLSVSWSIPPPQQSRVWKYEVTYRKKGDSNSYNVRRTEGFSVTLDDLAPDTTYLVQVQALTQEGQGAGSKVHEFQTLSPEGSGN
Kind of assay: SPR (BIAcore 3000), EphA2-Fc amine-coupled to CM5 chip (about 500 RU), IgG in solution, 25 C, 1:1 Langmuir fit.

For assay [12], the target named is T1, Human EphA2-Fc fusion protein (human …). The assay is described as follows: SPR (BIAcore 3000), EphA2-Fc amine-coupled to CM5 chip (about 500 RU), IgG in solution, 25 C, KD = koff/kon.

Human EphA2-Fc fusion protein (human EphA2 fused with the Fc portion of a human IgG1) (human), sequence (P29317 24-534 limits assumed): as above

In assay [1], irrelevant antibody (Example 2) came in with an OD450 (background signal) of 0.3 OD450.

B1: VH-4H5/VL-4H5 as human IgG1 (antibody, from another filing, V domains shown)
VH: QVQLLESGGGLVQPGGSLRLSCAASGFTFSSYTMSWVRQAPGQALEWMGTISSGGTYTYYPDSVKGRFTISRDNAKNSLYLQMNSLRAEDTAVYYCAREAIFTYWGRGTLVTVSS
VL: DIQLTQSPSSLSASVGDRVTITCKASQDINNYLSWYQQKPGQAPRLLIYRANRLVDGVPDRFSGSGYGTDFTLTINNIESEDAAYYFCLKYDVFPYTFGQGTKVEIK
With B1, the fold increase of avidity against parental mAb EA2 in [2] came out at 90 fold.

B2: Fab clone 4H5 (VH-4H5/VL-4H5) (Fab, from another filing, V domains shown)
VH: B1 VH
VL: B1 VL
As to B2, the [specific OD450/background OD450] ratio in assay [3] is 30. In assay [4], this molecule had an OD450 of 3 OD450 and a fold signal above background of the irrelevant antibody of 10 fold. Also, the [specific OD450/background OD450] ratio in assay [5] was found to be 23.

B3: Fab "corrected" clone 4H5 (VH-4H5/VL-"corrected" 4H5) (Fab, from another filing, V domains shown)
VH: B1 VH
VL: B1 VL with V93E
B3: in assay [5], the [specific OD450/background OD450] ratio was 11.

B4: VH-4H5/VL-"corrected" 4H5 as human IgG1 (antibody, from another filing, V domains shown)
VH: B1 VH
VL: B1 VL with V93E
For B4, in [2], the fold increase of avidity against parental mAb EA2 was 4 fold. Besides, in assay [6], the koff was determined as 0.00105 s⁻¹ and the kon was 750000 M⁻¹ s⁻¹. In addition, the Kd in [7] amounted to 1.4 nM.

B5: Fab clone VH-2G6/VL-12C8 (Fab, from another filing, V domains shown)
VH: EVQLVESGGGVVRPGGSLRLSCAASGFTVSDYSMNWVRQAPGKGLEWIGFIRNKANDYTTEYSASVKGRFTISRDDSKNTLYLQMNSLKTEDTAVYYCTTYPRYHAMDSWGQGTMVTVSS
VL: AIQLTQSPSSLSASVGDRVTITCRASQSISNNLHWYLQKPGQSPQLLIYYVFQSISGVPSRFSGSGSGTDFTLTISSLQPEDFATYYCQQSNSWPLTFGGGTKLEIK
B5 returned an OD450 in assay [8] of 2.8 OD450.

B6: VH-2G6/VL-12C8 as full length human IgG1 (antibody, from another filing, V domains shown)
VH: B5 VH
VL: B5 VL
On to B6, for which the fold decrease of avidity against parental mAb B233 in [2] was 10 fold. In [9], this molecule returned a koff of 0.00019 s⁻¹ and a kon of 64000 M⁻¹ s⁻¹. For the same molecule, the Kd in [10] amounted to 3 nM.

B7: Fab clone VH-6H11/VL-8G7 (Fab, from another filing, V domains shown)
VH: EVQLVESGGGLVQPGGSLRLSCAASGFTFSDYSMNWVRQAPGKGLEWVAFIRNKANDYTTEYSASVKGRFTISRDNSKNTLYLQMNSLRAEDTAMYYCARYPRYHAMDSWGQGTLVTVSS
VL: EIVLTQSPATLSVSPGERATLSCRASQSISNNLHWYQQKPGKAPKSLIYYVFQSISGVPSRFSGSGSGTDFTLTINSLEAEDAATYYCQQSNSWPLTFGGGTKVDIK
Turning to B7, the OD450 in assay [8] was 2.5 OD450.

B8: VH-6H11/VL-8G7 as full length human IgG1 (antibody, from another filing, V domains shown)
VH: B7 VH
VL: B7 VL
Regarding B8, in assay [2], the fold decrease of avidity against parental mAb B233 was 6 fold. In assay [9], the koff turned out to be 0.00018 s⁻¹ and the kon amounted to 96000 M⁻¹ s⁻¹. This molecule came in with a Kd in [10] of 1.9 nM.

B9: mAb EA2 (murine anti-human EphA2 monoclonal antibody) (antibody, V domains shown)
VH: DVKLVESGGGLVKPGGSLKLSCAASGFTFSSYTMSWVRQTPEKRLEWVATISSGGTYTYYPDSVKGRFTISRDNAKNTLYLQMSSLKSEDTAMYYCTREAIFTYWGQGTLVTVSA
VL: DIKMTQSPSSMYASLGERVTITCKASQDINNYLSWFQQKPGKSPKTLIYRANRVDGVPSRFSGSGSGQDYSLTISSLEYEDMGIYYCLKYDEFPYTFGGGTKLEIK
In assay [11], B9 showed a koff of 0.00307 s⁻¹ and a kon of 517000 M⁻¹ s⁻¹. This molecule came in with a Kd in assay [12] of 5.94 nM.
